{
  "source": "patent US7947279B2",
  "about": "“Peptide having hydrolase activity” (The Trustees of Columbia University in the City of New York, priority 2005, dated 2011)",
  "molecules": {"B1": {"name": "TAT-HA-Uch-L1: fusion protein: 11-amino acid transduction domain of HIV-transactivator protein (TAT) fused with an HA tag and human Uch-L1 (protein)", "chain": "MQLKPMEINPEMLNKVLSRLGVAGQWRFVDVLGLEEESLGSVPAPACALLLLFPLTAQHENFRKKQIEELKGQEVSPKVYFMKQTIGNSCGTIGLIHAVANNQDKLGFEDGSVLKQFLSETEKMSPEDRAKCFEKNEAIQAAHDAVAQEGQCRVDDKVNFHFILFNNVDGHLYELDGRMPFPVNHGASSEDTLLKDAAKVCREFTEREQGEVRFSAVALCKAA", "modifications": "left off: small tags and cut ends"}},
  "test_system": "monoubiquitin",
  "assay": "Monoubiquitin levels (quantitative Western blot)",
  "format": "cell-based, mouse",
  "procedure": "Western Blotting: Protein levels were assessed using standard procedures. Protein extraction was performed using buffer with and without detergent. For the extraction of protein using detergent, hippocampal tissues and cultured hippocampal neurons (5 DIV) were homogenized in RIPA buffer (50 mM Tris-HCl pH 7.4, 1% Triton X-100, 1% sodium deoxycholate, 0.1% SDS, 150 mM sodium chloride, 10 mM sodium fluoride, 30 mM sodium pyrophosphate, 50 mM sodium orthovanadate) containing 1× complete protease inhibitor (Roche) and 1 mM phenylmethylsulfonyl fluoride (PMSF). For extraction of proteins without detergent, hippocampal extracts were homogenized with disposable dounce homogenizers in buffer A, containing 10 mM HEPES pH 7.3, 300 mM sucrose, protease 1× complete protease inhibitor (Roche) and PMSF. After centrifugation at 10,000×g supernatant proteins were resolved on a 8% or 4-20% gradient Tris-Glycine gel, transferred onto PVDF or nitrocellulose membrane and blocked in 5% skim milk in PBS-Tween 0.1% (PBS-T). Membranes were probed with primary antibodies, and after washing with PBS-T incubated with an appropriate HRP-conjugated secondary antibody. The following antibodies were used: mouse monoclonal anti-ubiquitin (Chemicon), rabbit polyclonal anti-pCREB (Upstate Biotech.), rabbit polyclonal anti-PKA-RIIα (Santa Cruz Biotech. Inc), mouse monoclonal anti-Uch-L1 (Novocastra), monoclonal mouse anti-HA (Santa Cruz Biotech. Inc), and anti-PKA IIα. Detection was performed using HRP-conjugated secondary antibodies (Pierce, Rockford, Ill.). To control loading and transfer, protein immunoreactivities were normalized against total extracellular signal-regulated protein kinases (ERK1/2) levels with a rabbit analyzed using a rabbit polyclonal anti-ERK1/2 antibody (Cell Signaling Technology, Inc). NIH IMAGE was used to analyze the scanned blots and quantify the intensity of the protein signals.",
  "note": "“Also recorded” adds a separate entry of the source.",
  "data": [
    {"molecule": "B1", "values": [
      {"measurement": "mono-ubiquitin levels", "setting": "20 nM fusion protein 1 hour, then 200 nM oligomeric Aβ plus fusion protein 20 min", "result": "90.25±17.25 % of control"},
      {"measurement": "monoubiquitin levels", "setting": "fusion protein 20 nM 1 hr pre-incubation plus Aβ", "result": "normal monoubiquitin levels; also recorded: blocks the decrease of monoubiquitin levels"},
      {"measurement": "monoubiquitin levels", "setting": "fusion protein 20 nM 1 hr pre-incubation plus Aβ, listed as TAT-A-Uch-L1 peptide", "result": "annulled the decrease"},
      {"measurement": "monoubiquitin levels", "setting": "fusion protein 20 nM 1 hr pre-incubation plus Aβ, listed as TAT-Uch-L1 fusion protein", "result": "re-establishes normal mono-ubiquitin levels"},
      {"measurement": "mono-ubiquitin levels", "setting": "fusion protein alone", "result": "121.03±14.69 % of control"},
      {"measurement": "monoubiquitin levels", "setting": "substance alone", "result": "slight increase"}
    ]}
  ]
}
